According to patent US20230212260A1 (published 2023):
Each block holds one molecule with its values, some of them ahead of it.

What was measured:
[1] = molecular target: CD40 (UniProt P25942); assay: cell-based or functional assay
[2] = molecular target: T1, human CEA (human, UniProt P06731 35-685, limits assumed); assay: ELISA
T1 sequence (looked up): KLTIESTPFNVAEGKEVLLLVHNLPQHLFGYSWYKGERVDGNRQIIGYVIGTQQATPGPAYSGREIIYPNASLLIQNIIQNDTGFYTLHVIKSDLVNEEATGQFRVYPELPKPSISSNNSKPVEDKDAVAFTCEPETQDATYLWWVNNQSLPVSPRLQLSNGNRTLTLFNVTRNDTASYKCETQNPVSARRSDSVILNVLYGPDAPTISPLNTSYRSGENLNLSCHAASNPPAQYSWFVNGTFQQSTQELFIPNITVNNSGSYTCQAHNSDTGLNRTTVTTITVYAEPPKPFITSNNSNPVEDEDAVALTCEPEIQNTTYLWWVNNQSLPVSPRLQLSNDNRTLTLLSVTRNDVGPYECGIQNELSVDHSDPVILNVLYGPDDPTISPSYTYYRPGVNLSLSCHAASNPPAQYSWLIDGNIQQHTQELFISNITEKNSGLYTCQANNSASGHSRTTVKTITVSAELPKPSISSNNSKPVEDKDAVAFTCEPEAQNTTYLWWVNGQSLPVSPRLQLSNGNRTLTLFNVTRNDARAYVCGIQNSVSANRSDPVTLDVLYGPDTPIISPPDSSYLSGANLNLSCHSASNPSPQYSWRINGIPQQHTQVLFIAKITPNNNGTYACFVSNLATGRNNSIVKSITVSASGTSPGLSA

[3] = molecular target: T2, CD27 (UniProt P26842 20-260, limits assumed); assay: cell-based or functional assay
T2 sequence (looked up): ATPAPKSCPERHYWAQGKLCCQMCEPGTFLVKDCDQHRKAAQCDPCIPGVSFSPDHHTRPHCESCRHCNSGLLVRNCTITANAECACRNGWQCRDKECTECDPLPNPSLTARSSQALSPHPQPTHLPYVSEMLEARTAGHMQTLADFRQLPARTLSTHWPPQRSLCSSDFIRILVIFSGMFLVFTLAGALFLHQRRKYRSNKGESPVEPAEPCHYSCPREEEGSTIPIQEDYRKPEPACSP

Sequence of CD40 (P25942 21-277 limits assumed): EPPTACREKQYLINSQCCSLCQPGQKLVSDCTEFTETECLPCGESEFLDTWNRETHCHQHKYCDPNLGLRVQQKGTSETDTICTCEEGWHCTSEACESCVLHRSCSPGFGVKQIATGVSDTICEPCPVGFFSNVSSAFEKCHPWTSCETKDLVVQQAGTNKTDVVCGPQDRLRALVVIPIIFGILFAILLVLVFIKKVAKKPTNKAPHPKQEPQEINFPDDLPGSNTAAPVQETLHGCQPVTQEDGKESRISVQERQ

immature dendritic cell activation assay, activation level (CD86+ / CD83+), 100 ng/ml, 24 h [1]: 46.1%
Molecule: Trimeric CD40L (ligand)

binding result [2]: binds
B1: aCEA-scCD40L (bispecific antibody)
heavy: EVQLLESGGGLVQPGGSLRLSCATSGFTFTDYYMNWVRQAPGKGLEWLGFIGNKANGYTTEYSASVKGRFTISRDKSKSTLYLQMNTLQAEDSAIYYCTRDRGLRFYFDYWGQGTLVTVSSASTKGPSVFPFAPSSKSTSGGTAALGCLVKDYFPEPVTVSWNSGALTSGVHTFPAVLQSSGLYSLSSVVTVPSSSLGTQTYICNVNHKPSNTKVDKKVEPKSCDKTHGSGSSSSSSQIAAHVISEASSKTTSVLQWAEKGYYTMSNNLVTLENGKQLTVKRQGLYYIYAQVTFCSNREASSQAPFIASLSLKSPGRFERILLRAANTHSSAKPCGQQSIHLGGVFELQPGASVFVNVTDPSQVSHGTGFTSFGLLKLGSGSGNGSQIAAHVISEASSKTTSVLQWAEKGYYTMSNNLVTLENGKQLTVKRQGLYYIYAQVTFCSNREASSQAPFIASLSLKSPGRFERILLRAANTHSSAKPCGQQSIHLGGVFELQPGASVFVNVTDPSQVSHGTGFTSFGLLKLGSGSGNGSQIAAHVISEASSKTTSVLQWAEKGYYTMSNNLVTLENGKQLTVKRQGLYYIYAQVTFCSNREASSQAPFIASLSLKSPGRFERILLRAANTHSSAKPCGQQSIHLGGVFELQPGASVFVNVTDPSQVSHGTGFTSFGLLKL
light: QTVLTQSPSSLSVSVGDRVTITCRASSSVTYIHWYQQKPGLAPKSLIYATSNLASGVPSRFSGSGSGTDYTFTISSLQPEDIATYYCQHWSSKPPTFGQGTKVEVKRTVAAPSVFIFPPSDEQLKSGTASVVCLLNNFYPREAKVQWKVDNALQSGNSQESVTEQDSKDSTYSLSSTLTLSKADYEKHKVYACEVTHQGLSSPVTKSFNRGEC

CD27 Luciferase assay with MDA-MB231 cells, activity against that of scCD27L-Fc [3]: ~3 fold
B2: aPDL1-scCD27L-SAB (bispecific antibody, human IgG1, kappa)
chain: QSLGWDVAELQLNHTGPQQDPRLYWQGGPALGRSFLHGPELDKGQLRIHRDGIYMVHIQVTLAICSSTTASRHHPTTLAVGICSPASRSISLLRLSFHQGCTIASQRLTPLARGDTLCTNLTGTLLPSRNTDETFFGVQWVRPGSGSGNGSESLGWDVAELQLNHTGPQQDPRLYWQGGPALGRSFLHGPELDKGQLRIHRDGIYMVHIQVTLAICSSTTASRHHPTTLAVGICSPASRSISLLRLSFHQGCTIASQRLTPLARGDTLCTNLTGTLLPSRNTDETFFGVQWVRPGSGSGNGSESLGWDVAELQLNHTGPQQDPRLYWQGGPALGRSFLHGPELDKGQLRIHRDGIYMVHIQVTLAICSSTTASRHHPTTLAVGICSPASRSISLLRLSFHQGCTIASQRLTPLARGDTLCTNLTGTLLPSRNTDETFFGVQWVRPGSGSDKTHTCPPCPAPELLGGPSVFLFPPKPKDTLMISRTPEVTCVVVDVSHEDPEVKFNWYVDGVEVHNAKTKPREEQYSSTYRVVSVLTVLHQDWLNGKEYKCKVSNKALPAPIEKTISKAKGQPREPQVYTLPPCRDELTKNQVSLWCLVKGFYPSDIAVEWESNGQPENNYKTTPPVLDSDGSFFLYSKLTVDKSRWQQGNVFSCSVMHEALHNHYTQKSLSLSPGK
heavy: EVQLLESGGGLVQPGGSLRLSCAASGFTFSSYIMMWVRQAPGKGLEWVSSIYPSGGITFYADTVKGRFTISRDNSKNTLYLQMNSLRAEDTAVYYCARIKLGTVTTVDYWGQGTLVTVSSASTKGPSVFPLAPSSKSTSGGTAALGCLVKDYFPEPVTVSWNSGALTSGVHTFPAVLQSSGLYSLSSVVTVPSSSLGTQTYICNVNHKPSNTKVDKKVEPKSCDKTHTCPPCPAPELLGGPSVFLFPPKPKDTLMISRTPEVTCVVVDVSHEDPEVKFNWYVDGVEVHNAKTKPREEQYSSTYRVVSVLTVLHQDWLNGKEYKCKVSNKALPAPIEKTISKAKGQPREPQVCTLPPSRDELTKNQVSLSCAVKGFYPSDIAVEWESNGQPENNYKTTPPVLDSDGSFFLVSKLTVDKSRWQQGNVFSCSVMHEALHNRFTQKSLSLSPGK
light: QSALTQPASVSGSPGQSITISCTGTSSDVGGYNYVSWYQQHPGKAPKLMIYDVSNRPSGVSNRFSGSKSGNTASLTISGLQAEDEADYYCSSYTSSSTRVFGTGTKVEIKRTVAAPSVFIFPPSDEQLKSGTASVVCLLNNFYPREAKVQWKVDNALQSGNSQESVTEQDSKDSTYSLSSTLTLSKADYEKHKVYACEVTHQGLSSPVTKSFNRGEC
